The values that follow are results of earlier work, collected in publication PMC7927047.

In general, pKd refers to the negative decadic logarithm of the Kd, by convention in mol/L.

Series [1] has as its target Cbl-b (Type II orientation, R911) (Homo sapiens) (UniProt Q13191). The experiment in a line: NMR titration.
Series [2] has as its target Cbl-b (Type I orientation, R904) (Homo sapiens) (UniProt Q13191). The experiment in a line: NMR titration.

pKd: −log10 of the molar value.

Sequence of CIN85 SH3 (Q96B97 1-58): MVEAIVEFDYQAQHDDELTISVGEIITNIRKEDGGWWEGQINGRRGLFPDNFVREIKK
Sequence of Cbl-b (Type II orientation, R911) (Homo sapiens) (Q13191 whole entry): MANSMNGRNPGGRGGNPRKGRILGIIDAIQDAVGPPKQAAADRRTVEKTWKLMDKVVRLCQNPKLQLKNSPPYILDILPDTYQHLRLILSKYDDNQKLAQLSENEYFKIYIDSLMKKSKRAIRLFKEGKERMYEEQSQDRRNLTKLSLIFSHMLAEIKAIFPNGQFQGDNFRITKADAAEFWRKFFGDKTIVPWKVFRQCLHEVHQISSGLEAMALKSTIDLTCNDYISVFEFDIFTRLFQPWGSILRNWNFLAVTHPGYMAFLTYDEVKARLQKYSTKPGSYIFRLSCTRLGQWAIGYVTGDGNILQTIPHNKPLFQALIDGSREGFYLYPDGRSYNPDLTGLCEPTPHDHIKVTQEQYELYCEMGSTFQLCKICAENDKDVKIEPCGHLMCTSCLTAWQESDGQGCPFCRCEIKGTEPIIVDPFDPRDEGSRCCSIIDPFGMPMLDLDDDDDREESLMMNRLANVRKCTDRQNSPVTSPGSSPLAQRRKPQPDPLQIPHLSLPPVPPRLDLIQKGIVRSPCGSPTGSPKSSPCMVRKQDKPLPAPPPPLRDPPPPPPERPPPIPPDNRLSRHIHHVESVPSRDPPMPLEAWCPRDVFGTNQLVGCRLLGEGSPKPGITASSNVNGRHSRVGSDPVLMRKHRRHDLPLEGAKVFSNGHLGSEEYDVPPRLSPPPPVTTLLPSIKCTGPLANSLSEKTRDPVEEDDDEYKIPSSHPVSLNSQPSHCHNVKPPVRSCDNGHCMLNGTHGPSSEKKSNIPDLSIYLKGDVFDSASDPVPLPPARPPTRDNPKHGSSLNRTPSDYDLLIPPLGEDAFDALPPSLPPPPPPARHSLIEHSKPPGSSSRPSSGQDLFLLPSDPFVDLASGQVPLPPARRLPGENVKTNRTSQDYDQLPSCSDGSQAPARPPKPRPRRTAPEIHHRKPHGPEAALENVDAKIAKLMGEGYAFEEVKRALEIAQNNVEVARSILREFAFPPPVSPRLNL
Sequence of Cbl-b (Type I orientation, R904) (Homo sapiens) (Q13191 whole entry): as above

Turning to CIN85 SH3 (from UniProt Q96B97), the pKd in series [1] was 5.70; in series [2], 4.33.
